Measurements as given in patent US20150368661A1 (UNIVERSITY OF LOUISVILLE RESEARCH FOUNDATION, published 2015).
Read-outs that look alike come from different tables or passages of the source.

Legend:
[1] = biological target: T1, HIV-1 Env of strain SS1196.1 (clade B) on Env-pseudotyped virus (HIV-1 SS1196.1 (clade B)); assay: cell-based or functional assay
[2] = biological target: T2, HIV-1 Env of strain Q769.h5 (clade A) on Env-pseudotyped virus (HIV-1 Q769.h5 (clade A)); assay: cell-based or functional assay
[3] = biological target: T3, HIV-1 Env of strain SF162 (clade B) on Env-pseudotyped virus (HIV-1 SF162 (clade B), UniProt P19550 32-847); assay: cell-based or functional assay
[4] = biological target: T4, HIV-1 Env of strain Du156 (clade C) on Env-pseudotyped virus (HIV-1 Du156 (clade C)); assay: cell-based or functional assay
[5] = biological target: T5, recombinant gp120 from HIV-1 SF162 (clade B) (HIV-1 SF162 (clade B), UniProt P19550 32-502); assay: VRC01p (plant-produced)
T5 construct: domain: gp120; also called gp120SF162

[6] = biological target: T5, recombinant gp120 from HIV-1 SF162 …; assay: gp120-ELISA, plate coated with recombinant gp120, non-linear regression; VRC01p (plant-produced)
[7] = biological target: T6, recombinant gp120 from HIV-1 DU156 (clade C) (HIV-1 DU156 (clade C)); assay: gp120-ELISA, plate coated with recombinant gp120, non-linear regression
T6 construct: domain: gp120; also called gp120DU156

[8] = biological target: T7, recombinant gp120 from HIV-1 Q769.H5 (clade A) (HIV-1 Q769.H5 (clade A)); assay: as above
T7 construct: domain: gp120

[9] = biological target: T1, HIV-1 Env of strain SS1196.1 (clade B) …; assay: cell-based or functional assay; remark: listed apart in the source
[10] = biological target: T2, HIV-1 Env of strain Q769.h5 (clade A) …; assay: cell-based or functional assay; remark: listed apart in the source
[11] = biological target: T3, HIV-1 Env of strain SF162 (clade B) on …; assay: cell-based or functional assay; remark: listed apart in the source
[12] = biological target: T4, HIV-1 Env of strain Du156 (clade C) on …; assay: cell-based or functional assay; remark: listed apart in the source
[13] = biological target: T5, recombinant gp120 from HIV-1 SF162 …; assay: gp120-ELISA, plate coated with recombinant gp120, non-linear regression
[14] = biological target: T5, recombinant gp120 from HIV-1 SF162 …

B1: VRC01p (Nicotiana benthamiana plant-expressed anti-HIV-1 bnMAb VRC01 IgG1 from the L-(KP6pp)-H construct) (antibody)
light: EIVLTQSPGTLSLSPGETAIISCRTSQYGSLAWYQQRPGQAPRLVIYSGSTRAAGIPDRFSGSRWGPDYNLTISNLESGDFGVYYCQQYEFFGQGTKVQVDIKRTVAAPSVFIFPPSDEQLKSGTASVVCLLNNFYPREAKVQWKVDNALQSGNSQESVTEQDSKDSTYSLSSTLTLSKADYEKHKVYACEVTHQGLRSPVTKSFNRGECGGK
heavy: not shown
notes: also called plant-produced VRC01; VRC01p IgG1
VRC01p IC50 (µg/ml), HIV-1 neutralization [1]: 1.32 µg/mL
VRC01p IC50 (µg/ml), HIV-1 neutralization [2]: 0.17 µg/mL
VRC01p IC50 (µg/ml), HIV-1 neutralization [3]: 0.04 µg/mL
VRC01p IC50 (µg/ml), HIV-1 neutralization [4]: 0.14 µg/mL
Kd [5]: 3.97 nM
EC50 [6]: 4.11 µg/mL
EC50 [7]: 67.9 µg/mL
EC50 [8]: 0.35 µg/mL
IC50 (µg/ml) for VRC01p alone, HIV-1 neutralization, TZM-bl cells (VRC01p:GRFT series) [9]: 2.61 µg/mL
IC50 (µg/ml) for VRC01p alone, HIV-1 neutralization, TZM-bl cells (VRC01p:MVC series) [9]: 2.22 µg/mL
IC50 (µg/ml) for VRC01p alone, HIV-1 neutralization, TZM-bl cells (VRC01p:TFV series) [9]: 2.14 µg/mL
IC50 (µg/ml) for VRC01p alone, HIV-1 neutralization, TZM-bl cells (VRC01p:GRFT series) [10]: 0.37 µg/mL
IC50 (µg/ml) for VRC01p alone, HIV-1 neutralization, TZM-bl cells (VRC01p:MVC series) [10]: 0.54 µg/mL
IC50 (µg/ml) for VRC01p alone, HIV-1 neutralization, TZM-bl cells (VRC01p:TFV series) [10]: 0.47 µg/mL
IC50 (µg/ml) for VRC01p alone, HIV-1 neutralization, TZM-bl cells (VRC01p:GRFT series) [11]: 0.98 µg/mL
IC50 (µg/ml) for VRC01p alone, HIV-1 neutralization, TZM-bl cells (VRC01p:MVC series) [11]: 0.5 µg/mL
IC50 (µg/ml) for VRC01p alone, HIV-1 neutralization, TZM-bl cells (VRC01p:TFV series) [11]: 0.65 µg/mL
IC50 (µg/ml) for VRC01p alone, HIV-1 neutralization, TZM-bl cells (VRC01p:GRFT series) [12]: 0.25 µg/mL
IC50 (µg/ml) for VRC01p alone, HIV-1 neutralization, TZM-bl cells (VRC01p:MVC series) [12]: 0.26 µg/mL
IC50 (µg/ml) for VRC01p alone, HIV-1 neutralization, TZM-bl cells (VRC01p:TFV series) [12]: 0.23 µg/mL

B2: VRC01HEK (HEK293F cell-produced bnMAb VRC01) (antibody)
light: EIVLTQSPGTLSLSPGETAIISCRTSQYGSLAWYQQRPGQAPRLVIYSGSTRAAGIPDRFSGSRWGPDYNLTISNLESGDFGVYYCQQYEFFGQGTKVQVDIKRTVAAPSVFIFPPSDEQLKSGTASVVCLLNNFYPREAKVQWKVDNALQSGNSQESVTEQDSKDSTYSLSSTLTLSKADYEKHKVYACEVTHQGLRSPVTKSFNRGEC
heavy: not shown
notes: also called human cell-produced VRC01; human cell-derived bnMAb
EC50 [7]: 15.1 µg/mL
EC50 [8]: 0.28 µg/mL
EC50 [13]: 4.24 µg/mL
Kd [14]: 3.82 nM
